# In publication PMC10397247:
# T1: P5A-bA
# T1 chain: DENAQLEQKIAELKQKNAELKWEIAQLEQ
# T2: P6A-bA
# T2 chain: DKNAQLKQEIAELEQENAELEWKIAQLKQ
# T3: P7A-bA
# T3 chain: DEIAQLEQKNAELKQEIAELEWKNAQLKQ
# T4: P8A-bA
# T4 chain: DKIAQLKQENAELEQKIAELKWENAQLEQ
# T5: P9A-bA
# T5 chain: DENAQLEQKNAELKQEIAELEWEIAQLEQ
# T6: P5bH1
# T6 chain: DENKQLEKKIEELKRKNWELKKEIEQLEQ
# T7: P6bH1
# T7 chain: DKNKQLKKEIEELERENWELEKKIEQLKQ
# T8: P7bH1
# T8 chain: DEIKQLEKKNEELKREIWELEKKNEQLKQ
# T9: P8bH1
# T9 chain: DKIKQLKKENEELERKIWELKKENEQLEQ
# T10: P9bH1
# T10 chain: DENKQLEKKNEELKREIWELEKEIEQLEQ
# T11: P8mS
# T11 chain: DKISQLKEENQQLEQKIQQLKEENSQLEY
# T12: P9mS
# T12 chain: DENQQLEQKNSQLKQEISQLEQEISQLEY
# T13: P4bH1
# T13 chain: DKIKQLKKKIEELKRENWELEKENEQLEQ
# What was measured:
# Experiment in all cases: two-hybrid library CCNG1;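 further: natural log of median RNA to DNA barcode read ratio; higher means stronger binding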
# P5A-bA = target: T1, P5A-bA
# P6A-bA = target: T2, P6A-bA
# P7A-bA = target: T3, P7A-bA
# P8A-bA = target: T4, P8A-bA
# P9A-bA = target: T5, P9A-bA
# P5bH1 = target: T6, P5bH1
# P6bH1 = target: T7, P6bH1
# P7bH1 = target: T8, P7bH1
# P8bH1 = target: T9, P8bH1
# P9bH1 = target: T10, P9bH1
# P8mS = target: T11, P8mS
# P9mS = target: T12, P9mS
# P4bH1 = target: T13, P4bH1
interaction score (P5bH1),interaction score (P6bH1),interaction score (P7bH1),interaction score (P8bH1),interaction score (P9bH1),Binder,also measured
,,,,,DENAQLEQKIAELKQKNAELKWEIAQLEQ [P5A-bA],interaction score (P5A-bA): -1.22; interaction score (P6A-bA): 2.33; interaction score (P7A-bA): -1.32; interaction score (P8A-bA): 0.0376; interaction score (P9A-bA): -0.7
-0.609,1.31,-2.02,0.944,-0.9,DENKQLEKKIEELKRKNWELKKEIEQLEQ [P5bH1],
,,,,,DKISQLKEENQQLEQKIQQLKEENSQLEY [P8mS],interaction score (P8mS): -1.02; interaction score (P9mS): -0.61
-1.09,-0.487,-0.994,-0.993,-0.46,DKIKQLKKKIEELKRENWELEKENEQLEQ [P4bH1],interaction score (P4bH1): -1.18
